Experimental data as given in patent US12643935B2, “PD-L1 binding peptides” (UNIVERSITY OF SOUTHERN CALIFORNIA, priority 2020, dated 2026).
“Also recorded” adds a separate entry of the source.

Tests used:
hPD-L1 [1] = target: T1, hPD-L1 (Homo sapiens, UniProt Q9NZQ7); test: Surface plasmon resonance of mPD-1 on immobilized hPD-L1; conditions: SPR, 25° C., one-site saturation binding model; read-out: dissociation constant (KD) hPD-L1/mPD-1
T1 construct: designed from A18 to T239 with a methionine added to the N-terminus; hexahistidine tag (C); made in house
Protocol: In order to confirm that the expressed hPD-L1 was correctly folded, binding to mPD-1 was measured by SPR. The dissociation constant (KD) between recombinant hPD-L1 and PD-1 was determined to be 3.2±0.3 μM using a one-site saturation binding model (FIG. 7).
SPR analysis was performed on a Biacore T-100 at the USC Nanobiophysics core. E. coli expressed biotinylated hPD-L1 was immobilized onto a sensor chip SA (GE Healthcare Life Sciences) and different concentrations (from 1.5×10^−7 to 2.9×10^−5 M) of mPD-1 was flowed over the chip at a rate of 50 μL/min for 60 seconds in a buffer consisting of 50 mM HEPES-KOH pH 7.5, 150 mM NaCl, 0.05% (v/v) Tween-20 and 1 mg/mL BSA at 25° C. The response values were fit to a one-site saturation binding model in GraphPad Prism to obtain an equilibrium binding constant.

hPD-L1 [2] = target: T1, hPD-L1; test: Radioactive competition assay: [35S]-SPAM binding to immobilized hPD-L1 with competitor; conditions: 5 μM competitor
Protocol: For radioactive competition assays, hPD-L1-immobilized streptavidin agarose beads were preincubated with the desired competitor for one hour at 4° C. followed by addition of the radiolabeled peptide for 1 h. The ratio of the counts remaining on the beads to the total counts added to the binding reaction was calculated to determine the percent bound.

Kd (hPD-L1 [1]): ~3000 nM
B1: mPD-1: murine variant of PD-1, recombinant extracellular domain with HA tag and His tag (protein)
chain: MALEVPNGPWRSLTFYPAWLTVSEGANATFTCSLSNWSEDLMLNWNRLSPSNQTEKQAAFSNGLSQPVQDARFQIIQLPNRHDFHMNILDTRRNDSGIYLCGAISLHPKAKIEESPGAELVVTERILETSTRYPSGGYPYDVPDYALEHHHHHH
modifications: HA tag and His tag
notes: murine variant of PD-1, recombinant extracellular domain with HA tag and His tag
effect on [35S]-SPAM binding to immobilized hPD-L1 (hPD-L1 [2]): significantly inhibited; also recorded: disrupted
